Values quoted from earlier work in article doi:10.1101/2025.04.17.649309.

Target: Cys12 (UniProt position 12, YTKETCPYCHR)

Glutaredoxin 3 (Grx3) (Escherichia coli)
pKa: 4.1
